According to paper PMC12067093 (2025):
Blank lines part the entries; values can stand above or below the binder they belong to.

Target: BRD4 BD2 (Homo sapiens, UniProt O60885)
Experiment: SPR

Kd: 20 nM
B1: TRIM25 PRYSPRY (protein)
chain: KVLETFLAKSRPELLEYYIKVILDYNTAHNKVALSECYTVASVAEMPQNYRPHPQRFTYCSQVLGLHCYKKGIHYWEVELQKNNFCGVGICYGSMNRQGPESRLGRNSASWCVEWFNTKISAWHNNVEKTLPSTKATRVGVLLNCDHGFVIFFAVADKVHLMYKFRVDFTEALYPAFWVFSAGATLSICSPK
modifications: TRIM25 covalently pre-labelled with heterobifunctional compound HB2

Kd: 15 nM
B2: TRIM25 PRYSPRY (protein)
chain: B1 chain
modifications: TRIM25 covalently pre-labelled with heterobifunctional compound HB1

Kd: 22.5 nM
B3: TRIM25 PRYSPRY (protein)
chain: B1 chain
modifications: TRIM25 covalently pre-labelled with heterobifunctional compound HB3
